The chains are these.
B1: W3XX115-T3U0.E44-1.uIgG4V322 (Fc fusion)
chain: APTSSSTKKTQLQLEHLLLDLQMILNGINNYKNPKLTRMLTAKFAMPKKATELKHLQCLEEELKPLEEVLNGAQSKNFHLRPRDLISNINVIVLELKGSETTFMCEYADETATIVEFLNRWITFCQSIISTLTESKYGPPCPPCPAPEAAGGPSVFLFPPKPKDTLMISRTPEVTCVVVDVSQEDPEVQFNWYVDGVEVHNAKTKPREEQFNSTYRVVSVLTVLHQDWLNGKEYKCKVSNKGLPSSIEKTISKAKGQPREPQVYTLPPCQEEMTKNQVSLWCLVKGFYPSDIAVEWESNGQPENNYKTTPPVLDSDGSFFLYSRLTVDKSRWQEGNVFSCSVMHEALHNHYTQKSLSLSLG
heavy: EIQLQQSGPELVKPGASVKVSCKASGYSFTDYNMYWVKQSHGESLEWIGYIDPYNGGTRYNQKFKGKATLTVDKSSSTAFMHLNSLTSEDSAVYYCARNGHWDGAWFAYWGQGTLVTVSAASTKGPSVFPLAPCSRSTSESTAALGCLVKDYFPEPVTVSWNSGALTSGVHTFPAVLQSSGLYSLSSVVTVPSSSLGTKTYTCNVDHKPSNTKVDKRVESKYGPPCPPCPAPEAAGGPSVFLFPPKPKDTLMISRTPEVTCVVVDVSQEDPEVQFNWYVDGVEVHNAKTKPREEQFNSTYRVVSVLTVLHQDWLNGKEYKCKVSNKGLPSSIEKTISKAKGQPREPQVCTLPPSQEEMTKNQVSLSCAVKGFYPSDIAVEWESNGQPENNYKTTPPVLDSDGSFFLVSRLTVDKSRWQEGNVFSCSVMHEALHNHYTQKSLSLSLG
light: DIQMNQSPSSLSASLGDTITITCHASQNINVWLSWYQQKPGNIPKLLIYKASNLHTGVPSRFSGSRSGTGFTLTISSLQPEDIATYYCHQGQSYPFTFGSGTKLEIKRTVAAPSVFIFPPSDEQLKSGTASVVCLLNNFYPREAKVQWKVDNALQSGNSQESVTEQDSKDSTYSLSSTLTLSKADYEKHKVYACEVTHQGLSSPVTKSFNRGEC
B2: W3XX115-T2U0.E44-31.uIgG4V322 (Fc fusion)
chain: APTSSSTKKTQLQLEHLLLDLQMILNGINNYKNPKLTRMLTVKFYMPKKATELKHLQCLEEELKPLEEVLNLAQSKNFHLRPRDLISNINVIVLELKGSETTFMCEYADETATIVEFLNRWITFCQSILESKYGPPCPPCPAPEAAGGPSVFLFPPKPKDTLMISRTPEVTCVVVDVSQEDPEVQFNWYVDGVEVHNAKTKPREEQFNSTYRVVSVLTVLHQDWLNGKEYKCKVSNKGLPSSIEKTISKAKGQPREPQVYTLPPCQEEMTKNQVSLWCLVKGFYPSDIAVEWESNGQPENNYKTTPPVLDSDGSFFLYSRLTVDKSRWQEGNVFSCSVMHEALHNHYTQKSLSLSLG
heavy: B1 heavy
light: B1 light
B3: W3XX115-T2U0.E44-32.uIgG4V322 (Fc fusion)
chain: B2 chain with V42I
heavy: B1 heavy
light: B1 light

The results in this text go back to patent publication US20250000946A1.

Positions count from the first letter of the chain named.

Chain of Human IL-2Rα/β/γ complex (high affinity IL-2 receptor) (human) (P01589 22-272, chain 1 of 3): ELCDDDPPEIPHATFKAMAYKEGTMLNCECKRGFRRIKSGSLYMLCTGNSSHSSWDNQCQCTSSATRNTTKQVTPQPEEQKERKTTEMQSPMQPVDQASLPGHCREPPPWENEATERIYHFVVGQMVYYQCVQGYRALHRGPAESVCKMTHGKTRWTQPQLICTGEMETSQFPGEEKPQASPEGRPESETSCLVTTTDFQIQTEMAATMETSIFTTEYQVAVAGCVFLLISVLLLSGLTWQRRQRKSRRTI
Chain of Human IL-2Rα/β/γ complex (high affinity IL-2 receptor) (human) (P14784 27-551, chain 2 of 3, further chain): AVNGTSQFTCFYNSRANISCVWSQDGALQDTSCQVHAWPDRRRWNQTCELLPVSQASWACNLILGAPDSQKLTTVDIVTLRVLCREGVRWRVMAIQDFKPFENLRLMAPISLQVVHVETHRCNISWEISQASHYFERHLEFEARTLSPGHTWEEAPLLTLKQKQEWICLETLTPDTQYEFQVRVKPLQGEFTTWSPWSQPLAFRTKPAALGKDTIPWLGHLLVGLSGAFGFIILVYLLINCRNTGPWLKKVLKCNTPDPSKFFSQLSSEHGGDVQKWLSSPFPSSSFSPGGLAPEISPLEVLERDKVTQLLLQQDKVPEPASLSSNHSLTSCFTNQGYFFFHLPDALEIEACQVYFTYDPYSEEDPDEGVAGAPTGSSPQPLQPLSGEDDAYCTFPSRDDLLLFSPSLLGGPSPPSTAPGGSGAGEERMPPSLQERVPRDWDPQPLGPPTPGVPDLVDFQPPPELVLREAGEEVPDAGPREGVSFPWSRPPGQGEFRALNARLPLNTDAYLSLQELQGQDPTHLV
Chain of Human IL-2Rα/β/γ complex (high affinity IL-2 receptor) (human) (P31785 23-369, chain 3 of 3, further chain): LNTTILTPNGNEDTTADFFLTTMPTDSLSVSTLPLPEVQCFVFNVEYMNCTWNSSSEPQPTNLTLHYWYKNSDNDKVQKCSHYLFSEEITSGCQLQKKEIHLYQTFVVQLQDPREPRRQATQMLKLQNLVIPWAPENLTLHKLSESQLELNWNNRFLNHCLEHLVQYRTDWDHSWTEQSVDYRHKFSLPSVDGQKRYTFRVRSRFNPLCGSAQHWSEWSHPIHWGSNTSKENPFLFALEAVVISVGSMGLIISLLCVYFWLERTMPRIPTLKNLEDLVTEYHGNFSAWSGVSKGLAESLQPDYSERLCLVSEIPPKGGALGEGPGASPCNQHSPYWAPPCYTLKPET

The assay addresses Human IL-2Rα/β/γ complex (high affinity IL-2 receptor) (human) (UniProt P01589). As to the kind of experiment: cell-based or functional assay.
In the case of B1, the Human Treg Potency EC50 (STAT5 phosphorylation) stood at 7.78 nM and the Human Treg Potency reduction was determined as 5560 fold.

Consider B2, for which the Human Treg Potency EC50 (STAT5 phosphorylation) was 48.8 nM and the Human Treg Potency reduction came to 34900 fold.

In turn, B3 had a Human Treg Potency EC50 (STAT5 phosphorylation) of 40.9 nM and a Human Treg Potency reduction of 29200 fold.
